From patent US20220119534A1 (DRAGONFLY THERAPEUTICS, published 2022)

Experiments:
[1] = biological target: T1, Human CLEC12A-His (human, UniProt Q5QGZ9 65-265); experiment: SPR Biacore 8K 37 C; TriNKET captured on anti-hFc chip, hCLEC12A-His as analyte; two-state fit; two-state fit
T1 construct: Recombinant soluble protein made in house (Dragonfly Tx); The hCLEC12A spot of the HuProt array is written under this molecule as well; also called hCLEC12A-His; hCLEC12A; not shown: His tag
T1 sequence: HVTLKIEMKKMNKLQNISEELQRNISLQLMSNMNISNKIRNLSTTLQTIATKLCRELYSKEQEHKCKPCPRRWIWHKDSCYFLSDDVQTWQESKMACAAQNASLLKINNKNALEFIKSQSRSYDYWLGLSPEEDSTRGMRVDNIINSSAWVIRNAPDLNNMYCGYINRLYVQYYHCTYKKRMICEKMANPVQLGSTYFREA

[2] = biological target: T1, Human CLEC12A-His; experiment: SPR Biacore 8K 37 C; TriNKET captured on anti-hFc chip, hCLEC12A-His as analyte; two-state fit, kd1; two-state fit; kd1
[3] = biological target: T1, Human CLEC12A-His; experiment: SPR Biacore 8K 37 C; TriNKET captured on anti-hFc chip, hCLEC12A-His as analyte; two-state fit, ka1 only; two-state fit; ka1 only
[4] = biological target: T1, Human CLEC12A-His; experiment: cell-based or functional assay
[5] = biological target: T1, Human CLEC12A-His; experiment: SPR Biacore 8K 37 C; TriNKET captured on anti-hFc chip, hCLEC12A-His as analyte; two-state fit, kd2
[6] = biological target: T2, human CLEC12A expressed on cells (human, UniProt Q5QGZ9 1-265); experiment: flow cytometry, HL60
T2 construct: Transduced isogenic cells or endogenous expression on AML cells; also called RMA-hCLEC12A; Ba/F3-hCLEC12A
T2 sequence: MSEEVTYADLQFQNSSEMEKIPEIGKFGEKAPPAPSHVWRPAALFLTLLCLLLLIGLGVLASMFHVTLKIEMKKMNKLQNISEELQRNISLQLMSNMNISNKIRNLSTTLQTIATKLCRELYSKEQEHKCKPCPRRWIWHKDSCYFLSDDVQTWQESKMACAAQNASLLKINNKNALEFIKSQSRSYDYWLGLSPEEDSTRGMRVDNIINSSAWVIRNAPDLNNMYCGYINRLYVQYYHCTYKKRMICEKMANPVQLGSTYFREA

[7] = biological target: T2, human CLEC12A expressed on cells; experiment: flow cytometry (MFI) on CLEC12A+ PL21 AML cells, about 0.04 to 27 nM, plateau about 1150 MFI; the molecule is assigned by panel order and legend paragraph 296
[8] = biological target: T3, human CLEC12A-K244Q-His (human, UniProt Q5QGZ9 65-265); experiment: SPR
T3 construct: Polymorphic variant; also called hCLEC12A-K244Q; CLEC12A (Q244)
T3 chain: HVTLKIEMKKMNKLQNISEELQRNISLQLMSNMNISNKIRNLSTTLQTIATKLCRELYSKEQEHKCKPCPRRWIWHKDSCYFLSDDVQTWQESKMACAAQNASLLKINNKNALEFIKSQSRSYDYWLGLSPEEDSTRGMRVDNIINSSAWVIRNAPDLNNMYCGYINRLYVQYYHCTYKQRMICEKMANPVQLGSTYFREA

[9] = biological target: T4, recombinant human CD16a V158 (human, UniProt P08637 17-208, biotinylated); experiment: SPR
T4 construct: also called FcγRIIIa V158; hCD16aV

[10] = biological target: T5, recombinant cynomolgus CLEC12A-His (cynomolgus monkey, UniProt A0A2K5WXQ4 71-271); experiment: SPR 37C
T5 construct: also called cCLEC12A-His; cCLEC12A
T5 sequence: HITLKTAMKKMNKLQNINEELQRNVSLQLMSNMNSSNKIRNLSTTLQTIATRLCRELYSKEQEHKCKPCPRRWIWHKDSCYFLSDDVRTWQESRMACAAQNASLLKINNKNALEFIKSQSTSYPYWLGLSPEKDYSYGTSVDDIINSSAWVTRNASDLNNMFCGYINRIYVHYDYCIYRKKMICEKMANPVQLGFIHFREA

[11] = biological target: T2, human CLEC12A expressed on cells; experiment: flow cytometry on HL-60 cells, fold over background
Method: The cells were then incubated with a fluorophore conjugated anti-human IgG secondary antibody and were analyzed by flow cytometry. The mean fluorescence intensity (MFI) values were normalized to secondary antibody only controls to obtain fold over background (FOB) values.
100,000 cells were seeded per well into a 96-well plate for FACS staining. Cells were washed with PBS. Cells were incubated in a 1:2000 dilution of live/dead dye in PBS for 15 minutes, then washed with FACS buffer. TriNKETs or mAbs were diluted into FACS buffer, and 50 μl containing diluted TriNKET or mAb was added to cells. Cells were incubated on ice for 20 minutes. After the incubation, cells were washed with FACS buffer. Anti-human IgG-Fc secondary antibody was diluted into FACS buffer, and 50 μl was added per well for detection of the bound TriNKETs or mAbs. Cells were incubated for 20 minutes on ice, then washed with FACS buffer. 50 μl of fixation buffer was added to each well, and cells were incubated for 10 minutes at room temperature. Cells were washed with FACS buffer and resuspended in FACS buffer for analysis with BD FACS Celesta SN #H66034400085, or BD FACS Celesta SN #H66034400160. Cells of interest were identified using FSC vs. SSC plot, and an appropriately shaped gate was drawn around the cells. Within the gated cells, doublet cells were removed by viewing FSC-H vs FSC-A plot. Within the single cell population, live cells were gated. Within the live gate, the mean fluorescence intensity (MFI) of each sample and the secondary-only control was calculated. Fold-over-background (FOB) was calculated as the ratio of test article MFI over secondary-only background MFI. Data were fit to a four-parameter non-linear regression curve using GraphPad Prism 7.0.

[12] = biological target: T6, recombinant human CLEC12A-His (human, UniProt Q5QGZ9 65-265); experiment: SPR screening, semi-purified
T6 construct: also called hCLEC12A-His; hCLEC12A
T6 sequence: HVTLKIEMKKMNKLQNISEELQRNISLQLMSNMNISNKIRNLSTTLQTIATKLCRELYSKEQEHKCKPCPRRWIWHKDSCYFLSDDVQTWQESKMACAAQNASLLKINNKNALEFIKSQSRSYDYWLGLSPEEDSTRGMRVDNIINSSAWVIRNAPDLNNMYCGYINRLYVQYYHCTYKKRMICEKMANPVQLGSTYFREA

[13] = biological target: T2, human CLEC12A expressed on cells; experiment: flow cytometry, hCLEC12A+ Ba/F3
[14] = biological target: T6, recombinant human CLEC12A-His; experiment: SPR
[15] = biological target: T6, recombinant human CLEC12A-His; experiment: SPR; sensorgrams of a CLEC12A concentration series with fit overlays (response up to about 28, time axis 0 to about 900)

T4 sequence (P08637 17-208 F176V limits assumed): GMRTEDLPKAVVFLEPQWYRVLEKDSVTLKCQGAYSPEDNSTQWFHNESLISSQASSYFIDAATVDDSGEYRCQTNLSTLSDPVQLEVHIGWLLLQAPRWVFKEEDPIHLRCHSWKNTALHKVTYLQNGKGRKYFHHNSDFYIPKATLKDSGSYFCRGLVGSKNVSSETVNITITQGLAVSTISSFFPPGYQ

B1: AB0053 (bispecific antibody)
chain 1: QLQLQESGPGLVKPSETLSLTCTVSGFSLTNYGLHWIRQPPGKCLEWIGVIWSGGKTDYNPSLKSRVTISKDTSKNQFSLKLSSVQAADTAVYYCAKYDYDDALDYWGQGTLVTVSSGGGGSGGGGSGGGGSGGGGSDIQMTQSPSSLSASVGDRVTITCHASQNINFWLSWYQQKPGKAPKLLIYEASNLHTGVPSRFSGSGSGTRFTLTISSLQPEDIATYYCQQSHSYPLTFGCGTKLEIKGSDKTHTCPPCPAPELLGGPSVFLFPPKPKDTLMISRTPEVTCVVVDVSHEDPEVKFNWYVDGVEVHNAKTKPREEQYNSTYRVVSVLTVLHQDWLNGKEYKCKVSNKALPAPIEKTISKAKGQPREPRVYTLPPCRDELTKNQVSLTCLVKGFYPSDIAVEWESNGQPENNYKTTPPVLVSDGSFTLYSKLTVDKSRWQQGNVFSCSVMHEALHNHYTQKSLSLSPG
chain 2: EVQLVESGGGLVKPGGSLRLSCAASGFTFSSYSMNWVRQAPGKGLEWVSSISSSSSYIYYADSVKGRFTISRDNAKNSLYLQMNSLRAEDTAVYYCARGAPIGAAAGWFDPWGQGTLVTVSSASTKGPSVFPLAPSSKSTSGGTAALGCLVKDYFPEPVTVSWNSGALTSGVHTFPAVLQSSGLYSLSSVVTVPSSSLGTQTYICNVNHKPSNTKVDKKVEPKSCDKTHTCPPCPAPELLGGPSVFLFPPKPKDTLMISRTPEVTCVVVDVSHEDPEVKFNWYVDGVEVHNAKTKPREEQYNSTYRVVSVLTVLHQDWLNGKEYKCKVSNKALPAPIEKTISKAKGQPREPQVCTLPPSRDELTENQVSLTCLVKGFYPSDIAVEWESNGQPENNYKTTPPVLDSDGSFFLYSWLTVDKSRWQQGNVFSCSVMHEALHNHYTQKSLSLSPG
chain 3: DIQMTQSPSSVSASVGDRVTITCRASQGISSWLAWYQQKPGKAPKLLIYAASSLQSGVPSRFSGSGSGTDFTLTISSLQPEDFATYYCQQGVSFPRTFGGGTKVEIKRTVAAPSVFIFPPSDEQLKSGTASVVCLLNNFYPREAKVQWKVDNALQSGNSQESVTEQDSKDSTYSLSSTLTLSKADYEKHKVYACEVTHQGLSSPVTKSFNRGEC
Kd [1]: 2.41 nM
koff [2]: 0.0157 s⁻¹
kon [3]: 1.63e+06 M⁻¹ s⁻¹
EC50 (nM), KHYG-1-CD16aV cytotoxicity assay, PL-21 cells [4]: 0.39 nM
koff [5]: 0.000949 s⁻¹

B2: AB0192 TriNKET (other)
chain: EVQLVESGGGVVQPGGSLRLSCAASGFTFNAFGMHWVRQAPGKCLEWVAFISSGSTSIYYANTVKGRFTISRDNSKNTLYLQMNSLRAEDTAVYYCARDGYPTGGAMDYWGQGTSVTVSSGGGGSGGGGSGGGGSGGGGSDIQMTQSPSSLSASVGDRVTITCKASQDIYNYLSWFQQKPGKAPKPLIYRANILVSGVPSRFSGSGSGQDYTFTISSLQPEDIATYYCLQFDAFPFTFGCGTKLEIKGSDKTHTCPPCPAPELLGGPSVFLFPPKPKDTLMISRTPEVTCVVVDVSHEDPEVKFNWYVDGVEVHNAKTKPREEQYNSTYRVVSVLTVLHQDWLNGKEYKCKVSNKALPAPIEKTISKAKGQPREPRVYTLPPCRDELTKNQVSLTCLVKGFYPSDIAVEWESNGQPENNYKTTPPVLVSDGSFTLYSKLTVDKSRWQQGNVFSCSVMHEALHNHYTQKSLSLSPG
heavy: EVQLVESGGGLVKPGGSLRLSCAASGFTFSSYSMNWVRQAPGKGLEWVSSISSSSSYIYYADSVKGRFTISRDNAKNSLYLQMNSLRAEDTAVYYCARGAPIGAAAGWFDPWGQGTLVTVSSASTKGPSVFPLAPSSKSTSGGTAALGCLVKDYFPEPVTVSWNSGALTSGVHTFPAVLQSSGLYSLSSVVTVPSSSLGTQTYICNVNHKPSNTKVDKKVEPKSCDKTHTCPPCPAPELLGGPSVFLFPPKPKDTLMISRTPEVTCVVVDVSHEDPEVKFNWYVDGVEVHNAKTKPREEQYNSTYRVVSVLTVLHQDWLNGKEYKCKVSNKALPAPIEKTISKAKGQPREPQVCTLPPSRDELTENQVSLTCLVKGFYPSDIAVEWESNGQPENNYKTTPPVLDSDGSFFLYSWLTVDKSRWQQGNVFSCSVMHEALHNHYTQKSLSLSPG
light: DIQMTQSPSSVSASVGDRVTITCRASQGISSWLAWYQQKPGKAPKLLIYAASSLQSGVPSRFSGSGSGTDFTLTISSLQPEDFATYYCQQGVSFPRTFGGGTKVEIKRTVAAPSVFIFPPSDEQLKSGTASVVCLLNNFYPREAKVQWKVDNALQSGNSQESVTEQDSKDSTYSLSSTLTLSKADYEKHKVYACEVTHQGLSSPVTKSFNRGEC
notes: Humanized 9F11.B7 scFv-Fc, A49MI Fab-Fc
EC50 [6]: 0.6 nM
Max binding MFI [6]: 503 MFI
EC50 [7]: 0.27 nM
fold difference in affinity vs CLEC12A WT [8]: ≤ 2.5 fold
fold difference in affinity vs trastuzumab [9]: ~2 fold
binding result [10]: no binding (tested: 100 nM)
EC50 (read off the curve) [11]: ~1 nM
Kd [12]: 1.26 nM
koff [12]: 0.00138 s⁻¹
kon [12]: 1.09e+06 M⁻¹ s⁻¹
EC50 [13]: 0.7 nM
Max binding MFI [13]: 10200 MFI
Kd [14]: 1.2 nM
Kd [15]: 1.66 nM
